From publication PMC9482650, “Quantitative fragmentomics allow affinity mapping of interactomes” (Nature Communications, 2022)

Assays:
Assay in all cases: holdup assay
Design in all cases: key: below the threshold = too weak to quantify, mostly under pKd 3.1 to 4
TJP1_3, Q07157 = molecular target: TJP1_3, Q07157
DLG2_2, Q15700 = molecular target: DLG2_2, Q15700
GRIP1_5, Q9Y3R0 = molecular target: T1, GRIP1_5, Q9Y3R0
T1 sequence (Q9Y3R0 568-668, limits assumed, looked up): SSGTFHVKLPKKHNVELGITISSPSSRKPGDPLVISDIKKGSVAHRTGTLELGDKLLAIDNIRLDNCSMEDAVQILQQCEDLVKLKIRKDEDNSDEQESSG

LAP2, Q96RT1 = molecular target: LAP2, Q96RT1
Chain of LAP2, Q96RT1 (Q96RT1 other isoform, or with tags, fused parts or gaps): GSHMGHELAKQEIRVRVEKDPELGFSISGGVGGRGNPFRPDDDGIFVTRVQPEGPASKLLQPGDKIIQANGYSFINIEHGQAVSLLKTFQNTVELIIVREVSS

CARD11, Q9BXL7 = molecular target: T2, CARD11, Q9BXL7
T2 sequence (Q9BXL7 662-765, limits assumed, looked up): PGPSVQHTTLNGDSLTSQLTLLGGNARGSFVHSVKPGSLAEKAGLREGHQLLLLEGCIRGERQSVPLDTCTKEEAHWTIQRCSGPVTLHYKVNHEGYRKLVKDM

GRIP2_6, Q9C0E4 = molecular target: GRIP2_6, Q9C0E4
Chain of GRIP2_6, Q9C0E4 (Q9C0E4 648-740): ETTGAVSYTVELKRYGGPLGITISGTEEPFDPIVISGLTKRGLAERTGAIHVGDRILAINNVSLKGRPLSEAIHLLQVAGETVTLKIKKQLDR

Inadl_6, Q8NI35 = molecular target: Inadl_6, Q8NI35
Chain of Inadl_6, Q8NI35 (Q8NI35 1058-1167): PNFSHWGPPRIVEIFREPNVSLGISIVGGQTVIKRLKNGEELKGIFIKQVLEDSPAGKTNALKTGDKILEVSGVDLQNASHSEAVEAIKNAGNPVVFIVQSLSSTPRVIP

LNX2_3, Q8N448 = molecular target: T3, LNX2_3, Q8N448
T3 sequence (Q8N448 463-564, limits assumed, looked up): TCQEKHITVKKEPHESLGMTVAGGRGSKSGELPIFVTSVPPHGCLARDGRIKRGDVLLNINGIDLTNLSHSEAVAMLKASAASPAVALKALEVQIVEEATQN

NHERF4_1, Q86UT5-2 = molecular target: NHERF4_1, Q86UT5-2
Chain of NHERF4_1, Q86UT5-2 (Q86UT5 other isoform, or with tags, fused parts or gaps): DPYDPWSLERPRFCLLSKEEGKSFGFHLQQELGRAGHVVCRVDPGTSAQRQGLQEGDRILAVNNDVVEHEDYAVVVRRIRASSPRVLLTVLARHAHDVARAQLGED

HTRA3, P83110 = molecular target: T4, HTRA3, P83110
T4 sequence (P83110 354-453, limits assumed, looked up): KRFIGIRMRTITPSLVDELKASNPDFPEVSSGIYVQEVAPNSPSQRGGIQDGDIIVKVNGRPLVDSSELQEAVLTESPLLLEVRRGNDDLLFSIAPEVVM

DVL3, Q92997 = molecular target: T5, DVL3, Q92997
T5 sequence (Q92997 244-331, limits assumed, looked up): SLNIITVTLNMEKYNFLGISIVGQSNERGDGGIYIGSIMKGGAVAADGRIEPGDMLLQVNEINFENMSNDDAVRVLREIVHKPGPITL

LNX1_1, Q8TBB1 = molecular target: LNX1_1, Q8TBB1
Chain of LNX1_1, Q8TBB1 (Q8TBB1 261-371): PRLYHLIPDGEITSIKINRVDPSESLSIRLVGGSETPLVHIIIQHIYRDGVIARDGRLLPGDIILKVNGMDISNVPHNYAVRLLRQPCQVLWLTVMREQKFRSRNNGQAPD

DLG4_3, P78352 = molecular target: DLG4_3, P78352
Chain of DLG4_3, P78352 (P78352 306-403): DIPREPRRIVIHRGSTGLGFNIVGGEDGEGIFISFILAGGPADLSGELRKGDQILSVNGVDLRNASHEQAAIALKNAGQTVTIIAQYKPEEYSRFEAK

HTRA2, O43464 = molecular target: HTRA2, O43464
Chain of HTRA2, O43464 (O43464 355-458): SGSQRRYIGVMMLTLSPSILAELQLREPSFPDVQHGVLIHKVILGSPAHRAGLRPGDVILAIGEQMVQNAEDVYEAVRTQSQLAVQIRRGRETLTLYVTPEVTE

MAGI3_2, Q5TCQ9 = molecular target: MAGI3_2, Q5TCQ9
Chain of MAGI3_2, Q5TCQ9 (Q5TCQ9 398-503): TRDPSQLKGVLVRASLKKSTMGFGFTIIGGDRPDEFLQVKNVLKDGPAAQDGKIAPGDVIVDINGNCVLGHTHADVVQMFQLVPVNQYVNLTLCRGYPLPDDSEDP

GOPC, Q9HD26 = molecular target: GOPC, Q9HD26
GRIP2_4, Q9C0E4 = molecular target: GRIP2_4, Q9C0E4
Chain of GRIP2_4, Q9C0E4 (Q9C0E4 446-548): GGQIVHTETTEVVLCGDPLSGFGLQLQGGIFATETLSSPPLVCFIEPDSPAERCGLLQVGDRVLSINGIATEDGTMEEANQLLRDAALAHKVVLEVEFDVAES

LRRC7, Q96NW7 = molecular target: T6, LRRC7, Q96NW7
T6 sequence (Q96NW7 1440-1537, limits assumed, looked up): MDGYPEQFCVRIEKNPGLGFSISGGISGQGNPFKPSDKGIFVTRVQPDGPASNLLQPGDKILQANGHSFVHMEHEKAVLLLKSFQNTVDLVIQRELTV

LNX1_2, Q8TBB1 = molecular target: LNX1_2, Q8TBB1
Chain of LNX1_2, Q8TBB1 (Q8TBB1 371-470): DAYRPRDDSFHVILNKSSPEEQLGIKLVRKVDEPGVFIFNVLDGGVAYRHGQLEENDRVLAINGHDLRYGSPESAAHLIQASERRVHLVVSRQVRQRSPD

TJP3_3, O95049 = molecular target: T7, TJP3_3, O95049
T7 sequence (O95049 375-456, limits assumed, looked up): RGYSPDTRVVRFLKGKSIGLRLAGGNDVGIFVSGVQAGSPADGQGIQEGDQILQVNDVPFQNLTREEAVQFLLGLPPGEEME

APBA3_1, O96018 = molecular target: T8, APBA3_1, O96018
T8 sequence (O96018 389-490, limits assumed, looked up): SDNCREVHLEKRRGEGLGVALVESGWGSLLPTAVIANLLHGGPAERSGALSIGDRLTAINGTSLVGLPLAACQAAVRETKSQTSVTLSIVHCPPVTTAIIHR

GORASP2, Q9H8Y8 = molecular target: GORASP2, Q9H8Y8
HTRA1, Q92743 = molecular target: HTRA1, Q92743
Chain of HTRA1, Q92743 (Q92743 360-477): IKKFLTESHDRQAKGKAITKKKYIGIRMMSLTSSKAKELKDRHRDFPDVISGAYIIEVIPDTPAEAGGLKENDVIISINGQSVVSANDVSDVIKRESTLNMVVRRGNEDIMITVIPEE

FRMPD3, Q5JV73 = molecular target: FRMPD3, Q5JV73
Chain of FRMPD3, Q5JV73 (Q5JV73 12-100): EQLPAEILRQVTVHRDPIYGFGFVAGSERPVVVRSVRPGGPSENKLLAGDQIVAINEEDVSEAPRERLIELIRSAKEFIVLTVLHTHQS

SNTB1, Q13884 = molecular target: T9, SNTB1, Q13884
T9 sequence (Q13884 107-205, limits assumed, looked up): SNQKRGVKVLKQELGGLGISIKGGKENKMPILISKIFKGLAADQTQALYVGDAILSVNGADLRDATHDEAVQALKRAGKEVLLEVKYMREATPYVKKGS

PDZRN4_1, Q6ZMN7 = molecular target: PDZRN4_1, Q6ZMN7
Chain of PDZRN4_1, Q6ZMN7 (Q6ZMN7 213-318): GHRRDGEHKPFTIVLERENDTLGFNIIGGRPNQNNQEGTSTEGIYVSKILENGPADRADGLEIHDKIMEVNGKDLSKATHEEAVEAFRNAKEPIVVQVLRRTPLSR

MPP7, Q5T2T1 = molecular target: T10, MPP7, Q5T2T1
T10 sequence (Q5T2T1 134-230, limits assumed, looked up): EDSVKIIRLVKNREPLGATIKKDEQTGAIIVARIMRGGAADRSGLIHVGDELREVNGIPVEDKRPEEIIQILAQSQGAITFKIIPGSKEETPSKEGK

[1] = plain residues with an end cap or a label only (N-terminal biotin on a linker: ahx)
[2] = plain residues with an end cap or a label only (N-terminal biotin on a linker: ttds)

Chain of TJP1_3, Q07157 (Q07157 416-512): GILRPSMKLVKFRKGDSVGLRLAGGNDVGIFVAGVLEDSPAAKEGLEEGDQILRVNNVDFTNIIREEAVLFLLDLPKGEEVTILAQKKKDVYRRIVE
Chain of DLG2_2, Q15700 (Q15700 189-283): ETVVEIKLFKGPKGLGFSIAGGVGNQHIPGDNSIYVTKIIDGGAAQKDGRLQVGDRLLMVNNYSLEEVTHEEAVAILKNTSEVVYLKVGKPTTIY

B1: ADRB2, P07550 (peptide)
chain: RNCSTNDSLL
- pKd (TJP1_3, Q07157; [1]): below the threshold
- pKd (DLG2_2, Q15700; [1]): below the threshold
- pKd (GRIP1_5, Q9Y3R0; [1]): below the threshold
- pKd (LAP2, Q96RT1; [1]): below the threshold
- pKd (CARD11, Q9BXL7; [1]): below the threshold
- pKd (GRIP2_6, Q9C0E4; [1]): below the threshold
- pKd (Inadl_6, Q8NI35; [1]): below the threshold
- pKd (LNX2_3, Q8N448; [1]): below the threshold
- pKd (NHERF4_1, Q86UT5-2; [1]): 3.88
- pKd (HTRA3, P83110; [1]): below the threshold
- pKd (DVL3, Q92997; [1]): below the threshold
- pKd (LNX1_1, Q8TBB1; [1]): below the threshold
- pKd (DLG4_3, P78352; [1]): below the threshold
- pKd (HTRA2, O43464; [1]): below the threshold
- pKd (MAGI3_2, Q5TCQ9; [1]): below the threshold
- pKd (GOPC, Q9HD26; [1]): below the threshold
- pKd (GRIP2_4, Q9C0E4; [1]): below the threshold
- pKd (LRRC7, Q96NW7; [1]): below the threshold
- pKd (LNX1_2, Q8TBB1; [1]): below the threshold
- pKd (TJP3_3, O95049; [1]): below the threshold
- pKd (APBA3_1, O96018; [1]): below the threshold
- pKd (GORASP2, Q9H8Y8; [1]): 3.52
- pKd (HTRA1, Q92743; [1]): 3.62
- pKd (FRMPD3, Q5JV73; [1]): below the threshold
- pKd (SNTB1, Q13884; [1]): below the threshold
- pKd (PDZRN4_1, Q6ZMN7; [1]): below the threshold
- pKd (MPP7, Q5T2T1; [1]): below the threshold

B2: DGKK, Q5KSL6 (peptide)
chain: DPLTPSRSQL
- pKd (TJP1_3, Q07157; [2]): below the threshold
- pKd (DLG2_2, Q15700; [2]): 3.59
- pKd (GRIP1_5, Q9Y3R0; [2]): below the threshold
- pKd (LAP2, Q96RT1; [2]): below the threshold
- pKd (CARD11, Q9BXL7; [2]): below the threshold
- pKd (GRIP2_6, Q9C0E4; [2]): below the threshold
- pKd (Inadl_6, Q8NI35; [2]): below the threshold
- pKd (LNX2_3, Q8N448; [2]): below the threshold
- pKd (NHERF4_1, Q86UT5-2; [2]): 3.81
- pKd (HTRA3, P83110; [2]): below the threshold
- pKd (DVL3, Q92997; [2]): below the threshold
- pKd (LNX1_1, Q8TBB1; [2]): below the threshold
- pKd (DLG4_3, P78352; [2]): below the threshold
- pKd (HTRA2, O43464; [2]): below the threshold
- pKd (MAGI3_2, Q5TCQ9; [2]): 3.55
- pKd (GOPC, Q9HD26; [2]): below the threshold
- pKd (GRIP2_4, Q9C0E4; [2]): below the threshold
- pKd (LRRC7, Q96NW7; [2]): below the threshold
- pKd (LNX1_2, Q8TBB1; [2]): below the threshold
- pKd (TJP3_3, O95049; [2]): below the threshold
- pKd (APBA3_1, O96018; [2]): below the threshold
- pKd (GORASP2, Q9H8Y8; [2]): 4.21
- pKd (HTRA1, Q92743; [2]): below the threshold
- pKd (FRMPD3, Q5JV73; [2]): below the threshold
- pKd (SNTB1, Q13884; [2]): below the threshold
- pKd (PDZRN4_1, Q6ZMN7; [2]): below the threshold
- pKd (MPP7, Q5T2T1; [2]): below the threshold
